# Square brackets hold non-standard residues; d marks the D form. Ends that are not written are not given here. * marks the point of attachment. Palmitoyl = CCCCCCCCCCCCCCCC(=O)*; Myristoyl = CCCCCCCCCCCCCC(=O)*; Nle = CCCC[C@H](N)C(=O)O; NOMe = CON*
# T1: rat PrRP receptor in RC-4B/C cells (rat, UniProt Q64121 1-370)
# T1 construct: whole, on cells; endogenous receptor of RC-4B/C cells (ATCC); also called rat receptor; GPR10 receptor expressed in rat hypophyseal cells
# T1 sequence (looked up): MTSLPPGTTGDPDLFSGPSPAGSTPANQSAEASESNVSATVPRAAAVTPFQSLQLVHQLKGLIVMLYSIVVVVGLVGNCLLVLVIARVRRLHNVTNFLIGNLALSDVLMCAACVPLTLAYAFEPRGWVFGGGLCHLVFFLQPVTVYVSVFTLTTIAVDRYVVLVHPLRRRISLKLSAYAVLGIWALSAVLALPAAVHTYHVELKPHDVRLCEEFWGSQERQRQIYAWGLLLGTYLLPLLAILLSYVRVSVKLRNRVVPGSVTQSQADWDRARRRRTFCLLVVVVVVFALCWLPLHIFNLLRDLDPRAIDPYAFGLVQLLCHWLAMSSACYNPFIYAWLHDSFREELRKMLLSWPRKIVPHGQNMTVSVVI
# T2: human PrRP receptor GPR10 (human, UniProt P49683 1-370)
# T2 construct: whole, on cells; also called GPR10 human receptor transfected in CHO cells; human GPR10 receptor
# T2 sequence (looked up): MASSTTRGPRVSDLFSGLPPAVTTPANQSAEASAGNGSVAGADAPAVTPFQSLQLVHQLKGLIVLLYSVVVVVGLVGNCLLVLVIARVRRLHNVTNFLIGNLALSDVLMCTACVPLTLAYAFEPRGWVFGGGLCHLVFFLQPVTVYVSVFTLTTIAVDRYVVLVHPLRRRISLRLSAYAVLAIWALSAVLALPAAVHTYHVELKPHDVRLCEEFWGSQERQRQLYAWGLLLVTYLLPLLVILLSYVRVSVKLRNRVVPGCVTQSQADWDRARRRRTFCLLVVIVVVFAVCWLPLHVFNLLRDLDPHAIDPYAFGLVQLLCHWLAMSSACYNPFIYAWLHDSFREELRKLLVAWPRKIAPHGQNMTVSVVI
# B1: analog no. 47 (peptide)
# peptide: Palmitoyl-SRAHQHSMETRTPDINPAWYTGRGIRPVGRF-NH2
# SMILES: CCCCCCCCCCCCCCCC(=O)N[C@@H](CO)C(=O)N[C@@H](CCCNC(=N)N)C(=O)N[C@@H](C)C(=O)N[C@@H](Cc1c[nH]cn1)C(=O)N[C@@H](CCC(N)=O)C(=O)N[C@@H](Cc1c[nH]cn1)C(=O)N[C@@H](CO)C(=O)N[C@@H](CCSC)C(=O)N[C@@H](CCC(=O)O)C(=O)N[C@H](C(=O)N[C@@H](CCCNC(=N)N)C(=O)N[C@H](C(=O)N1CCC[C@H]1C(=O)N[C@@H](CC(=O)O)C(=O)N[C@H](C(=O)N[C@@H](CC(N)=O)C(=O)N1CCC[C@H]1C(=O)N[C@@H](C)C(=O)N[C@@H](Cc1c[nH]c2ccccc12)C(=O)N[C@@H](Cc1ccc(O)cc1)C(=O)N[C@H](C(=O)NCC(=O)N[C@@H](CCCNC(=N)N)C(=O)NCC(=O)N[C@H](C(=O)N[C@@H](CCCNC(=N)N)C(=O)N1CCC[C@H]1C(=O)N[C@H](C(=O)NCC(=O)N[C@@H](CCCNC(=N)N)C(=O)N[C@@H](Cc1ccccc1)C(N)=O)C(C)C)[C@@H](C)CC)[C@@H](C)O)[C@@H](C)CC)[C@@H](C)O)[C@@H](C)O
# B2: analog no. 26 (peptide)
# peptide: Myristoyl-[dF][dR]GVPRIGRGTYWAPNIDPT-NH2
# SMILES: CCCCCCCCCCCCCC(=O)N[C@H](Cc1ccccc1)C(=O)N[C@H](CCCNC(=N)N)C(=O)NCC(=O)N[C@H](C(=O)N1CCC[C@H]1C(=O)N[C@@H](CCCNC(=N)N)C(=O)N[C@H](C(=O)NCC(=O)N[C@@H](CCCNC(=N)N)C(=O)NCC(=O)N[C@H](C(=O)N[C@@H](Cc1ccc(O)cc1)C(=O)N[C@@H](Cc1c[nH]c2ccccc12)C(=O)N[C@@H](C)C(=O)N1CCC[C@H]1C(=O)N[C@@H](CC(N)=O)C(=O)N[C@H](C(=O)N[C@@H](CC(=O)O)C(=O)N1CCC[C@H]1C(=O)N[C@H](C(N)=O)[C@@H](C)O)[C@@H](C)CC)[C@@H](C)O)[C@@H](C)CC)C(C)C
# notes: scrambled peptide; also called 26 scram
# B3: analog no. 46 (peptide)
# peptide: Myristoyl-SRAHQHSMETRTPDINPAWYTGRGIRPVGRF-NH2
# SMILES: CCCCCCCCCCCCCC(=O)N[C@@H](CO)C(=O)N[C@@H](CCCNC(=N)N)C(=O)N[C@@H](C)C(=O)N[C@@H](Cc1c[nH]cn1)C(=O)N[C@@H](CCC(N)=O)C(=O)N[C@@H](Cc1c[nH]cn1)C(=O)N[C@@H](CO)C(=O)N[C@@H](CCSC)C(=O)N[C@@H](CCC(=O)O)C(=O)N[C@H](C(=O)N[C@@H](CCCNC(=N)N)C(=O)N[C@H](C(=O)N1CCC[C@H]1C(=O)N[C@@H](CC(=O)O)C(=O)N[C@H](C(=O)N[C@@H](CC(N)=O)C(=O)N1CCC[C@H]1C(=O)N[C@@H](C)C(=O)N[C@@H](Cc1c[nH]c2ccccc12)C(=O)N[C@@H](Cc1ccc(O)cc1)C(=O)N[C@H](C(=O)NCC(=O)N[C@@H](CCCNC(=N)N)C(=O)NCC(=O)N[C@H](C(=O)N[C@@H](CCCNC(=N)N)C(=O)N1CCC[C@H]1C(=O)N[C@H](C(=O)NCC(=O)N[C@@H](CCCNC(=N)N)C(=O)N[C@@H](Cc1ccccc1)C(N)=O)C(C)C)[C@@H](C)CC)[C@@H](C)O)[C@@H](C)CC)[C@@H](C)O)[C@@H](C)O
# B4: analog no. 44 (peptide)
# peptide: Palmitoyl-SRTHRHSMEIRTPDINPAWYASRGIRPVGRF-NHMe
# SMILES: CCCCCCCCCCCCCCCC(=O)N[C@@H](CO)C(=O)N[C@@H](CCCNC(=N)N)C(=O)N[C@H](C(=O)N[C@@H](Cc1c[nH]cn1)C(=O)N[C@@H](CCCNC(=N)N)C(=O)N[C@@H](Cc1c[nH]cn1)C(=O)N[C@@H](CO)C(=O)N[C@@H](CCSC)C(=O)N[C@@H](CCC(=O)O)C(=O)N[C@H](C(=O)N[C@@H](CCCNC(=N)N)C(=O)N[C@H](C(=O)N1CCC[C@H]1C(=O)N[C@@H](CC(=O)O)C(=O)N[C@H](C(=O)N[C@@H](CC(N)=O)C(=O)N1CCC[C@H]1C(=O)N[C@@H](C)C(=O)N[C@@H](Cc1c[nH]c2ccccc12)C(=O)N[C@@H](Cc1ccc(O)cc1)C(=O)N[C@@H](C)C(=O)N[C@@H](CO)C(=O)N[C@@H](CCCNC(=N)N)C(=O)NCC(=O)N[C@H](C(=O)N[C@@H](CCCNC(=N)N)C(=O)N1CCC[C@H]1C(=O)N[C@H](C(=O)NCC(=O)N[C@@H](CCCNC(=N)N)C(=O)N[C@@H](Cc1ccccc1)C(=O)NC)C(C)C)[C@@H](C)CC)[C@@H](C)CC)[C@@H](C)O)[C@@H](C)CC)[C@@H](C)O
# B5: analog no. 50 (peptide)
# peptide: TPDINPK(Palmitoyl)WYASRGIRPVGRF-NH2
# modifications: N-terminus assumed
# SMILES: CCCCCCCCCCCCCCCC(=O)NCCCC[C@H](NC(=O)[C@@H]1CCCN1C(=O)[C@H](CC(N)=O)NC(=O)[C@@H](NC(=O)[C@H](CC(=O)O)NC(=O)[C@@H]1CCCN1C(=O)[C@@H](N)[C@@H](C)O)[C@@H](C)CC)C(=O)N[C@@H](Cc1c[nH]c2ccccc12)C(=O)N[C@@H](Cc1ccc(O)cc1)C(=O)N[C@@H](C)C(=O)N[C@@H](CO)C(=O)N[C@@H](CCCNC(=N)N)C(=O)NCC(=O)N[C@H](C(=O)N[C@@H](CCCNC(=N)N)C(=O)N1CCC[C@H]1C(=O)N[C@H](C(=O)NCC(=O)N[C@@H](CCCNC(=N)N)C(=O)N[C@@H](Cc1ccccc1)C(N)=O)C(C)C)[C@@H](C)CC
# B6: analog no. 49 (peptide)
# peptide: TPDIK(Palmitoyl)PAWYASRGIRPVGRF-NH2
# modifications: N-terminus assumed
# SMILES: CCCCCCCCCCCCCCCC(=O)NCCCC[C@H](NC(=O)[C@@H](NC(=O)[C@H](CC(=O)O)NC(=O)[C@@H]1CCCN1C(=O)[C@@H](N)[C@@H](C)O)[C@@H](C)CC)C(=O)N1CCC[C@H]1C(=O)N[C@@H](C)C(=O)N[C@@H](Cc1c[nH]c2ccccc12)C(=O)N[C@@H](Cc1ccc(O)cc1)C(=O)N[C@@H](C)C(=O)N[C@@H](CO)C(=O)N[C@@H](CCCNC(=N)N)C(=O)NCC(=O)N[C@H](C(=O)N[C@@H](CCCNC(=N)N)C(=O)N1CCC[C@H]1C(=O)N[C@H](C(=O)NCC(=O)N[C@@H](CCCNC(=N)N)C(=O)N[C@@H](Cc1ccccc1)C(N)=O)C(C)C)[C@@H](C)CC
# B7: analog no. 45 (peptide)
# peptide: Palmitoyl-SRTHRHSMEIRTPDINPAWYASRGIRPVGRF-NOMe
# SMILES: CCCCCCCCCCCCCCCC(=O)N[C@@H](CO)C(=O)N[C@@H](CCCNC(=N)N)C(=O)N[C@H](C(=O)N[C@@H](Cc1c[nH]cn1)C(=O)N[C@@H](CCCNC(=N)N)C(=O)N[C@@H](Cc1c[nH]cn1)C(=O)N[C@@H](CO)C(=O)N[C@@H](CCSC)C(=O)N[C@@H](CCC(=O)O)C(=O)N[C@H](C(=O)N[C@@H](CCCNC(=N)N)C(=O)N[C@H](C(=O)N1CCC[C@H]1C(=O)N[C@@H](CC(=O)O)C(=O)N[C@H](C(=O)N[C@@H](CC(N)=O)C(=O)N1CCC[C@H]1C(=O)N[C@@H](C)C(=O)N[C@@H](Cc1c[nH]c2ccccc12)C(=O)N[C@@H](Cc1ccc(O)cc1)C(=O)N[C@@H](C)C(=O)N[C@@H](CO)C(=O)N[C@@H](CCCNC(=N)N)C(=O)NCC(=O)N[C@H](C(=O)N[C@@H](CCCNC(=N)N)C(=O)N1CCC[C@H]1C(=O)N[C@H](C(=O)NCC(=O)N[C@@H](CCCNC(=N)N)C(=O)N[C@@H](Cc1ccccc1)C(=O)NOC)C(C)C)[C@@H](C)CC)[C@@H](C)CC)[C@@H](C)O)[C@@H](C)CC)[C@@H](C)O
# Molecular target: T1, rat PrRP receptor in RC-4B/C cells
# Assay: competition with 125I-rat PrRP31, RC-4B/C cells
# Description: The rat pituitary cell line RC-4B/C (ATCC, Manassas, USA) was grown on 24-well plates which had their bottom coated with polyethyleneimine. The cells were grown to the optimal density of 300-450 thousand cells per well.
# (§1) Plates were incubated for 60 minutes at room temperature. After incubation, the cells were solubilized in 0.1 mol/l solution of NaOH, and the radioactivity bound to the cells was counted using a γ-counter. The experiments were performed in duplicate, and repeated at least three times.
% of PrRP31 [%],Ki [µM],Binder
277,0.00178,TPDINPAWYASRGIRPVGRF-NH2 (synthetic peptide) [Human PrRP20]
1200,0.00041,B1
1.4,0.364,B2
657,0.00075,B3
4e-05,1320,SHQRPADTHWYPRG[Nle]FPTIGRITARNGEVSR (scrambled peptide; also called 19 scram) [analog no. 19]

# Molecular target: T2, human PrRP receptor GPR10
# Assay: competition with 125I-human PrRP31, CHO cells with human GPR10
# Description: CHO cells transfected with human PrRP receptor GPR10 (Perkin Elmer, USA) were grown on 24-well plates coated with polyethyleneimine. […] The following agents were used for the experiment: binding buffer (25 mmol.1⁻¹ Tris, pH 7.4; 118 mmol.1⁻¹ NaCl, 10 mmol.1⁻¹ MgCl₂, 1 mmol.1⁻¹ CaCl₂, 5.5 mmol.1⁻¹ glucose, 0.5 mg/ml BSA), unlabeled analogs of PrRP (i.e. the analog being tested) at a final concentration between 10⁻¹¹ to 10⁻⁴ mol.1⁻¹, and radiolabeled human ¹²⁵1-PrRP31 at a final concentration of 5×10⁻¹¹ mol.1⁻¹.
# as §1
% of PrRP31 [%],Ki [µM],Binder
123,,B4
69,0.00564,B5
90,0.00434,B6
92,,B7
61,0.00637,SRTHRHSMEIK(Palmitoyl)TPDINPAWYASRGIRPVGRF-NH2 [analog no. 48]
